We go through 18 molecules from patent publication US20160108091A1 (Novartis, published 2016).

For this assay, the target named is T1, human APJ receptor (hAPJ) (human, UniProt P35414 1-380).
T1 sequence (looked up): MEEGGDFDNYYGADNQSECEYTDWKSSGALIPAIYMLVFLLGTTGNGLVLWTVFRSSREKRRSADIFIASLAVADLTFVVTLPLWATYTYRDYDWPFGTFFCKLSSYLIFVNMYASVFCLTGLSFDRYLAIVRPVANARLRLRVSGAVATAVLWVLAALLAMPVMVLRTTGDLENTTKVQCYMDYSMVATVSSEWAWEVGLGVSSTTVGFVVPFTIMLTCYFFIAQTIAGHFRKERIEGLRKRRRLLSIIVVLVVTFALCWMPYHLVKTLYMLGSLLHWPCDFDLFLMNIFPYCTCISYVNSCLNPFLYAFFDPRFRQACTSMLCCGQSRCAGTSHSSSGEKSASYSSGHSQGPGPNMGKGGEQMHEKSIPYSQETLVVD
Nature of the assay: cell-based or functional assay.

Bridges are numbered along the chain shown (N, C = ends). [ ]: non-standard residue; d: D form. The star is where a group is joined. pGlu = O=C1CC[C@@H](C(=O)O)N1; NHPhenethyl = c1ccc(CCN*)cc1; d(hCys) = N[C@H](CCS)C(=O)O; dNle = CCCC[C@@H](N)C(=O)O; hCys = N[C@@H](CCS)C(=O)O; Nle = CCCC[C@H](N)C(=O)O

B1: Ac-(D-hC)*-R-P-R-L-S-(hC)*-K-G-P-f-a-f-OH (peptide)
peptide: Ac-[d(hCys)]RPRLS[hCys]KGP[dF][dA][dF]-OH
modifications: disulfide 1-7
SMILES: CC(=O)N[C@@H]1CCSSCC[C@@H](C(=O)N[C@@H](CCCCN)C(=O)NCC(=O)N2CCC[C@H]2C(=O)N[C@H](Cc2ccccc2)C(=O)N[C@H](C)C(=O)N[C@H](Cc2ccccc2)C(=O)O)NC(=O)[C@H](CO)NC(=O)[C@H](CC(C)C)NC(=O)[C@H](CCCNC(=N)N)NC(=O)[C@@H]2CCCN2C(=O)[C@H](CCCNC(=N)N)NC1=O
Turning to B1, the “hAPJ Ca^2+ Flux EC50” value was 174 nM.

B2: Ac-(D-hC)*-R-P-R-L-S-hC*-K-G-P-Nle-P-F-OH (peptide)
peptide: Ac-[d(hCys)]RPRLS[hCys]KGP[Nle]PF-OH
modifications: disulfide 1-7
SMILES: CCCC[C@H](NC(=O)[C@@H]1CCCN1C(=O)CNC(=O)[C@H](CCCCN)NC(=O)[C@@H]1CCSSCC[C@@H](NC(C)=O)C(=O)N[C@@H](CCCNC(=N)N)C(=O)N2CCC[C@H]2C(=O)N[C@@H](CCCNC(=N)N)C(=O)N[C@@H](CC(C)C)C(=O)N[C@@H](CO)C(=O)N1)C(=O)N1CCC[C@H]1C(=O)N[C@@H](Cc1ccccc1)C(=O)O
As for B2, the “hAPJ Ca^2+ Flux EC50” value was determined as 14.1 nM.

B3: pE-R-C*-R-L-S-C*-F-G-P-(D-Nle)-a-f-OH (peptide)
peptide: [pGlu]RCRLSCFGP[dNle][dA][dF]-OH
modifications: disulfide 3-7
SMILES: CCCC[C@@H](NC(=O)[C@@H]1CCCN1C(=O)CNC(=O)[C@H](Cc1ccccc1)NC(=O)[C@@H]1CSSC[C@H](NC(=O)[C@H](CCCNC(=N)N)NC(=O)[C@@H]2CCC(=O)N2)C(=O)N[C@@H](CCCNC(=N)N)C(=O)N[C@@H](CC(C)C)C(=O)N[C@@H](CO)C(=O)N1)C(=O)N[C@H](C)C(=O)N[C@H](Cc1ccccc1)C(=O)O
For the molecule B3, the “hAPJ Ca^2+ Flux EC50” value stood at 3.3 nM.

B4: Ac-C*-R-P-R-L-S-C*-K-G-P-Nle-P-F-OH (peptide)
peptide: Ac-CRPRLSCKGP[Nle]PF-OH
modifications: disulfide 1-7
SMILES: CCCC[C@H](NC(=O)[C@@H]1CCCN1C(=O)CNC(=O)[C@H](CCCCN)NC(=O)[C@@H]1CSSC[C@H](NC(C)=O)C(=O)N[C@@H](CCCNC(=N)N)C(=O)N2CCC[C@H]2C(=O)N[C@@H](CCCNC(=N)N)C(=O)N[C@@H](CC(C)C)C(=O)N[C@@H](CO)C(=O)N1)C(=O)N1CCC[C@H]1C(=O)N[C@@H](Cc1ccccc1)C(=O)O
For the molecule B4, the “hAPJ Ca^2+ Flux EC50” value came out at 9.4 nM.

B5: pE-R-C*-R-L-S-C*-K-G-P-Nle-P-F-OH (peptide)
peptide: [pGlu]RCRLSCKGP[Nle]PF-OH
modifications: disulfide 3-7
SMILES: CCCC[C@H](NC(=O)[C@@H]1CCCN1C(=O)CNC(=O)[C@H](CCCCN)NC(=O)[C@@H]1CSSC[C@H](NC(=O)[C@H](CCCNC(=N)N)NC(=O)[C@@H]2CCC(=O)N2)C(=O)N[C@@H](CCCNC(=N)N)C(=O)N[C@@H](CC(C)C)C(=O)N[C@@H](CO)C(=O)N1)C(=O)N1CCC[C@H]1C(=O)N[C@@H](Cc1ccccc1)C(=O)O
Regarding B5, the “hAPJ Ca^2+ Flux EC50” value was 1 nM.

B6: Ac-c*-R-P-R-L-S-hC*-K-G-P-Nle-P-F-OH (peptide)
peptide: Ac-[dC]RPRLS[hCys]KGP[Nle]PF-OH
modifications: disulfide 1-7
SMILES: CCCC[C@H](NC(=O)[C@@H]1CCCN1C(=O)CNC(=O)[C@H](CCCCN)NC(=O)[C@@H]1CCSSC[C@@H](NC(C)=O)C(=O)N[C@@H](CCCNC(=N)N)C(=O)N2CCC[C@H]2C(=O)N[C@@H](CCCNC(=N)N)C(=O)N[C@@H](CC(C)C)C(=O)N[C@@H](CO)C(=O)N1)C(=O)N1CCC[C@H]1C(=O)N[C@@H](Cc1ccccc1)C(=O)O
Take B6: the “hAPJ Ca^2+ Flux EC50” value worked out at 12.2 nM.

B7: Ac-(D-hC)*-R-P-R-L-S-(D-hC)*-K-G-P-Nle-P-F-OH (peptide)
peptide: Ac-[d(hCys)]RPRLS[d(hCys)]KGP[Nle]PF-OH
modifications: disulfide 1-7
SMILES: CCCC[C@H](NC(=O)[C@@H]1CCCN1C(=O)CNC(=O)[C@H](CCCCN)NC(=O)[C@H]1CCSSCC[C@@H](NC(C)=O)C(=O)N[C@@H](CCCNC(=N)N)C(=O)N2CCC[C@H]2C(=O)N[C@@H](CCCNC(=N)N)C(=O)N[C@@H](CC(C)C)C(=O)N[C@@H](CO)C(=O)N1)C(=O)N1CCC[C@H]1C(=O)N[C@@H](Cc1ccccc1)C(=O)O
For the molecule B7, the “hAPJ Ca^2+ Flux EC50” value was 410 nM.

B8: pE-R-C*-R-L-S-C*-K-G-P-(D-Nle)-NH2 (peptide)
peptide: [pGlu]RCRLSCKGP[dNle]-NH2
modifications: disulfide 3-7
SMILES: CCCC[C@@H](NC(=O)[C@@H]1CCCN1C(=O)CNC(=O)[C@H](CCCCN)NC(=O)[C@@H]1CSSC[C@H](NC(=O)[C@H](CCCNC(=N)N)NC(=O)[C@@H]2CCC(=O)N2)C(=O)N[C@@H](CCCNC(=N)N)C(=O)N[C@@H](CC(C)C)C(=O)N[C@@H](CO)C(=O)N1)C(N)=O
With B8, the “hAPJ Ca^2+ Flux EC50” value came out at 227 nM.

B9: Ac-C*-R-P-R-L-S-C*-K-G-P-Nle-P-NH(Phenethyl) (peptide)
peptide: Ac-CRPRLSCKGP[Nle]P-NHPhenethyl
modifications: disulfide 1-7
For B9, the “hAPJ Ca^2+ Flux EC50” value came out at 3.2 nM.

B10: Ac-C*-R-P-R-L-S-C*-K-G-P-Nle-P-f-OH (peptide)
peptide: Ac-CRPRLSCKGP[Nle]P[dF]-OH
modifications: disulfide 1-7
SMILES: CCCC[C@H](NC(=O)[C@@H]1CCCN1C(=O)CNC(=O)[C@H](CCCCN)NC(=O)[C@@H]1CSSC[C@H](NC(C)=O)C(=O)N[C@@H](CCCNC(=N)N)C(=O)N2CCC[C@H]2C(=O)N[C@@H](CCCNC(=N)N)C(=O)N[C@@H](CC(C)C)C(=O)N[C@@H](CO)C(=O)N1)C(=O)N1CCC[C@H]1C(=O)N[C@H](Cc1ccccc1)C(=O)O
As to B10, the “hAPJ Ca^2+ Flux EC50” value amounted to 46.9 nM.

B11: Ac-c-R-P-R-L-S-(hC)-K-G-P-(D-Nle)-a-f-OH (peptide)
peptide: Ac-[dC]RPRLS[hCys]KGP[dNle][dA][dF]-OH
modifications: not fully specified; printed as Ac-c-R-P-R-L-S-(hC)-K-G-P-(D-Nle)-a-f-OH; cysteine pairing not given here
Regarding B11, the “hAPJ Ca^2+ Flux EC50” value came out at 79.3 nM.

B12: Ac-c*-R-P-R-L-S-c*-K-G-P-Nle-P-F-OH (peptide)
peptide: Ac-[dC]RPRLS[dC]KGP[Nle]PF-OH
modifications: disulfide 1-7
SMILES: CCCC[C@H](NC(=O)[C@@H]1CCCN1C(=O)CNC(=O)[C@H](CCCCN)NC(=O)[C@H]1CSSC[C@@H](NC(C)=O)C(=O)N[C@@H](CCCNC(=N)N)C(=O)N2CCC[C@H]2C(=O)N[C@@H](CCCNC(=N)N)C(=O)N[C@@H](CC(C)C)C(=O)N[C@@H](CO)C(=O)N1)C(=O)N1CCC[C@H]1C(=O)N[C@@H](Cc1ccccc1)C(=O)O
As for B12, the “hAPJ Ca^2+ Flux EC50” value stood at 48.7 nM.

B13: pE-R-C*-R-L-S-C*-K-A-P-(D-Nle)-a-f-OH (peptide)
peptide: [pGlu]RCRLSCKAP[dNle][dA][dF]-OH
modifications: disulfide 3-7
SMILES: CCCC[C@@H](NC(=O)[C@@H]1CCCN1C(=O)[C@H](C)NC(=O)[C@H](CCCCN)NC(=O)[C@@H]1CSSC[C@H](NC(=O)[C@H](CCCNC(=N)N)NC(=O)[C@@H]2CCC(=O)N2)C(=O)N[C@@H](CCCNC(=N)N)C(=O)N[C@@H](CC(C)C)C(=O)N[C@@H](CO)C(=O)N1)C(=O)N[C@H](C)C(=O)N[C@H](Cc1ccccc1)C(=O)O
As for B13, the “hAPJ Ca^2+ Flux EC50” value stood at 85.8 nM.

B14: pE-R-C*-R-L-S-C*-K-G-P-(D-Nle)-a-f-OH (peptide)
peptide: [pGlu]RCRLSCKGP[dNle][dA][dF]-OH
modifications: disulfide 3-7
SMILES: CCCC[C@@H](NC(=O)[C@@H]1CCCN1C(=O)CNC(=O)[C@H](CCCCN)NC(=O)[C@@H]1CSSC[C@H](NC(=O)[C@H](CCCNC(=N)N)NC(=O)[C@@H]2CCC(=O)N2)C(=O)N[C@@H](CCCNC(=N)N)C(=O)N[C@@H](CC(C)C)C(=O)N[C@@H](CO)C(=O)N1)C(=O)N[C@H](C)C(=O)N[C@H](Cc1ccccc1)C(=O)O
As for B14, the “hAPJ Ca^2+ Flux EC50” value turned out to be 2.9 nM.

B15: Ac-c*-R-P-R-L-S-C*-K-G-P-Nle-P-F-OH (peptide)
peptide: Ac-[dC]RPRLSCKGP[Nle]PF-OH
modifications: disulfide 1-7
SMILES: CCCC[C@H](NC(=O)[C@@H]1CCCN1C(=O)CNC(=O)[C@H](CCCCN)NC(=O)[C@@H]1CSSC[C@@H](NC(C)=O)C(=O)N[C@@H](CCCNC(=N)N)C(=O)N2CCC[C@H]2C(=O)N[C@@H](CCCNC(=N)N)C(=O)N[C@@H](CC(C)C)C(=O)N[C@@H](CO)C(=O)N1)C(=O)N1CCC[C@H]1C(=O)N[C@@H](Cc1ccccc1)C(=O)O
Take B15: the “hAPJ Ca^2+ Flux EC50” value was 21.4 nM.

B16: Ac-C*-R-P-R-L-S-c*-K-G-P-Nle-P-F-OH (peptide)
peptide: Ac-CRPRLS[dC]KGP[Nle]PF-OH
modifications: disulfide 1-7
SMILES: CCCC[C@H](NC(=O)[C@@H]1CCCN1C(=O)CNC(=O)[C@H](CCCCN)NC(=O)[C@H]1CSSC[C@H](NC(C)=O)C(=O)N[C@@H](CCCNC(=N)N)C(=O)N2CCC[C@H]2C(=O)N[C@@H](CCCNC(=N)N)C(=O)N[C@@H](CC(C)C)C(=O)N[C@@H](CO)C(=O)N1)C(=O)N1CCC[C@H]1C(=O)N[C@@H](Cc1ccccc1)C(=O)O
As to B16, the “hAPJ Ca^2+ Flux EC50” value amounted to 194 nM.

B17: Ac-C*-R-P-R-L-S-C*-K-G-P-Nle-NH(Phenethyl) (peptide)
peptide: Ac-CRPRLSCKGP[Nle]-NHPhenethyl
modifications: disulfide 1-7
SMILES: CCCC[C@H](NC(=O)[C@@H]1CCCN1C(=O)CNC(=O)[C@H](CCCCN)NC(=O)[C@@H]1CSSC[C@H](NC(C)=O)C(=O)N[C@@H](CCCNC(=N)N)C(=O)N2CCC[C@H]2C(=O)N[C@@H](CCCNC(=N)N)C(=O)N[C@@H](CC(C)C)C(=O)N[C@@H](CO)C(=O)N1)C(=O)NCCc1ccccc1
With B17, the “hAPJ Ca^2+ Flux EC50” value was 32.2 nM.

B18: pE-R-C*-R-L-S-C*-K-a-P-(D-Nle)-a-f-OH (peptide)
peptide: [pGlu]RCRLSCK[dA]P[dNle][dA][dF]-OH
modifications: disulfide 3-7
SMILES: CCCC[C@@H](NC(=O)[C@@H]1CCCN1C(=O)[C@@H](C)NC(=O)[C@H](CCCCN)NC(=O)[C@@H]1CSSC[C@H](NC(=O)[C@H](CCCNC(=N)N)NC(=O)[C@@H]2CCC(=O)N2)C(=O)N[C@@H](CCCNC(=N)N)C(=O)N[C@@H](CC(C)C)C(=O)N[C@@H](CO)C(=O)N1)C(=O)N[C@H](C)C(=O)N[C@H](Cc1ccccc1)C(=O)O
For the molecule B18, the “hAPJ Ca^2+ Flux EC50” value stood at 72.2 nM.
